Measured values published in US20230192801A1.

Biological target: membrane-associated human IR-A (plasma membranes of BHK cells stably transfected with human IR-A) (human) (UniProt P06213)
Assay: competition SPA, displacement of [125I-A14Y]-human insulin from membrane-associated human IR-A; affinity relative to human insulin standard

A9E, B3E, B26E, desB30 human insulin (ligand)
hIRA mem (% rel to HI), relative binding affinity: 55.8 % rel to HI

A9E, B3E, B27E, B28E, desB30 human insulin (ligand)
hIRA mem (% rel to HI), relative binding affinity: 35.4 % rel to HI
